Each block holds one binder with its values, some of them ahead of it.
How the values were obtained:
[1] = biological target: T1, TAMRA-labeled effector peptide cs221B (5(6)-TAMRA label coupled on resin after synthesis); test: FP titration, 1 nM TAMRA-labeled peptide, reducing conditions
T1 construct: also called TAMRA-cs221B
T1 peptide: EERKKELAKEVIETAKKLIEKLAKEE
Source text: To test the effect of the conformational pre-equilibrium on effector binding, we introduced disulfide “staples” that lock the hinge in one conformation. Using FP we analyzed peptide binding to stapled versions of hinge cs221 (FIG. 5A,B). […] Using the pre-equilibrium model described above, the observed association rates provide an estimate of the fraction of hinge that is in state Y in absence of the peptide: a 200-fold higher observed on rate for the locked Y variant indicates a 200-fold higher fraction of hinge in state Y compared to the original hinge. Assuming that the locked Y variant is 100% in state Y and assuming that the microscopic rate constant k₂ is identical for the locked Y hinge and state Y of the original hinge, this would indicate that the original hinge is 99.5% in state X and 0.5% in state Y at equilibrium.
All FP measurements were performed at 25° C. in 96-well plates (Corning 3686) using a Synergy Neo2™ plate reader and a 530/590 nm filter cube. The buffer for all FP measurements was 20 mM Tris-HCl, 100 mM NaCl, 0.05% v/v TWEEN20 at pH 8. […] The polarization signal S (as calculated by the Neo2™ software) was fitted to the equation

[2] = biological target: T2, TAMRA-labeled effector peptide cs074B (5(6)-TAMRA label coupled on resin after synthesis); test: fluorescence polarization kinetics; slope of kapp against hinge concentration
T2 construct: Chemically synthesized; also called TAMRA-cs074B
T2 peptide: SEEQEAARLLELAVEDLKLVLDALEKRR
Description: (§1) All FP measurements were performed at 25° C. in 96-well plates (Corning 3686) using a Synergy Neo2™ plate reader and a 530/590 nm filter cube. The buffer for all FP measurements was 20 mM Tris-HCl, 100 mM NaCl, 0.05% v/v TWEEN20 at pH 8. Titrations were carried out in 96-well format, with 4 replicates per plate and 24 data points per titration (23 steps of two-fold serial dilution of hinges in the presence of TAMRA-labeled peptide at a constant concentration between 0.1 nM and 1 nM) with a final sample volume of 80 μl per well. Titration plates were incubated overnight at room temperature before measuring to ensure complete equilibration. The polarization signal S (as calculated by the Neo2™ software) was fitted to the equation
(§2) For FP kinetics experiments a 2× peptide solution and 8 different 2× hinge solutions at different concentrations were prepared separately. 40 μl of each hinge solution were mixed with 40 μl peptide solution using a multichannel pipet and the measurement was started immediately after mixing. Polarization signals S at each concentration were fitted individually to the equation

[3] = biological target: T2, TAMRA-labeled effector peptide cs074B; test: fluorescence polarization titration; TAMRA-peptide constant, unlabeled hinge varied
Description: as §1

effector protein 3hb12 = biological target: T3, effector protein 3hb12; test: SEC binding experiment
T3 construct: Three-helix bundle built around peptide cs074B
T3 chain: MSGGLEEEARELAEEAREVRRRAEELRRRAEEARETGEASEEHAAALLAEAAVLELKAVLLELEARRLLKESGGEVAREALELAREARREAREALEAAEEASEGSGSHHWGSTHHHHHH

effector protein 3hb11 = biological target: T4, effector protein 3hb11; test: SEC binding experiment
T4 construct: Three-helix bundle built around peptide cs074B
T4 chain: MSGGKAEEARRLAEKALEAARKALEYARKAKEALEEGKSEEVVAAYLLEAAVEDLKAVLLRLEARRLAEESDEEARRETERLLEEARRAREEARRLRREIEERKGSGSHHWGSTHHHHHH

effector protein 3hb04 = biological target: T5, effector protein 3hb04; test: SEC binding experiment
T5 construct: Three-helix bundle built around peptide cs074B
T5 chain: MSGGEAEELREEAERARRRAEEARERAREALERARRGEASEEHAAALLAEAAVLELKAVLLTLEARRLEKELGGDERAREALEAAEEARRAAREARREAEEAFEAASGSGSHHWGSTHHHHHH

effector protein 3hb03 = biological target: T6, effector protein 3hb03; test: SEC binding experiment
T6 construct: Three-helix bundle built around peptide cs074B
T6 chain: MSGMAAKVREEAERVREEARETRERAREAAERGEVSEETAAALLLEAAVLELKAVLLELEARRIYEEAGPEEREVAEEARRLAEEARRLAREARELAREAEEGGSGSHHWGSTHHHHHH

effector protein 3hb08 = biological target: T7, effector protein 3hb08; test: SEC binding experiment
T7 construct: Three-helix bundle built around peptide cs074B
T7 chain: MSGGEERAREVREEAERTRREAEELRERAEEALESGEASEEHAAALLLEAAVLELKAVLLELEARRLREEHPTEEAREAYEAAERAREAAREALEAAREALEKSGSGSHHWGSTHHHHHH

[4] = biological target: T2, TAMRA-labeled effector peptide cs074B; test: fluorescence polarization titration; TAMRA-peptide constant, hinge varied
Source text: (§3) We used our hinge design approach to generate hinge-peptide pairs that span a wide structural space (FIGS. 1D, 2A, 6, 7). We experimentally tested multiple rounds of designs, using both DHRs (21) and helical junctions (22) as input scaffolds, and improving individual steps of the design pipeline between iterations. Designs for which hinge and GFP-fused peptide were soluble and interacted as judged by size exclusion chromatography (SEC, FIGS. 7-8) were selected for further characterization by fluorescence polarization (FP). […] To circumvent the bottleneck of finding soluble peptide sequences, we also sought to design hinges that bind to a given target peptide. Starting from design cs201, we used a modified version of our design pipeline to redesign the hinge to bind peptides cs074B or cs221B, respectively, which have similar hydrophobic fingerprints as the original target peptide cs201B.
as §1

[5] = biological target: T8, TAMRA-labeled effector peptide js007B (5(6)-TAMRA label coupled on resin after synthesis); test: fluorescence polarization kinetics; slope of kapp against hinge concentration
T8 construct: also called TAMRA-js007B
T8 peptide: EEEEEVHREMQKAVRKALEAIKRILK
Description: as §1, §2

[6] = biological target: T8, TAMRA-labeled effector peptide js007B; test: fluorescence polarization titration; TAMRA-peptide constant, hinge varied
Source text: as §3, §1

effector protein 3hb24 = biological target: T9, effector protein 3hb24; test: SEC binding experiment
T9 chain: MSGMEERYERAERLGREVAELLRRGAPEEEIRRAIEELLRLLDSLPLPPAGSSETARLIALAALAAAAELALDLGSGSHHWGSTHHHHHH

[7] = biological target: T10, TAMRA-labeled effector peptide cs230B (5(6)-TAMRA label coupled on resin after synthesis); test: fluorescence polarization titration; TAMRA-peptide constant, hinge varied
T10 construct: also called TAMRA-cs230B
T10 peptide: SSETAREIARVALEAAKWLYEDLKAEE
Source text: as §3, §1

effector protein 3hb32 = biological target: T11, effector protein 3hb32; test: SEC binding experiment
T11 chain: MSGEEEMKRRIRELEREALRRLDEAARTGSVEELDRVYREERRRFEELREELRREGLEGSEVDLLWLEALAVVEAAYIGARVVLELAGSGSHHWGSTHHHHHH

[8] = biological target: T12, TAMRA-labeled effector peptide cs269B (5(6)-TAMRA label coupled on resin after synthesis); test: fluorescence polarization kinetics; 5 nM TAMRA-peptide, slope of kapp against hinge concentration
T12 construct: also called TAMRA-cs269B
T12 peptide: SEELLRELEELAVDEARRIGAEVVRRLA

[9] = biological target: T12, TAMRA-labeled effector peptide cs269B; test: fluorescence polarization titration; TAMRA-peptide constant, hinge varied
Source text: as §3, §1

B1: variant cs221_lockedX, reducing conditions (DTT) (designed binder)
chain: MSGEMKEEIRRLAEELRERTKDEEVRELAREAARLAEESDDEEVKEVVKKALEAALKSKDEEVIRLLLLAAVCAAAAARSGSPEEKLEIAKKALELAMKSKDEEVIRLALLAAVLACRSDDEEVLKKVKEALEKAMESKDVEEIRERLREAVEVARAGSGSHHWGSTHHHHHH
notes: also called locked X with DTT
binding result [1]: binds

B2: FRET(extension) cs074F, unlabeled (designed binder)
chain: DEEVQEAVERAEELREEAEELIKKARKTGDPELLRKALEALECAVRAVEEAIKRNPDNDEAVETAVRLARELKKVAEELQERAKKTGDPELLKLALRALKVAVRAVKLAIKSNPDNEEAVKTAVRLARELLKVAEELKERAEKTGDPRLLLLAAEAIAWAIEAVFLAAKASENTEGALEAARAAVKLAEVAKRIAKLLQRDAKKEGDPELLKLALRALELAVRAVELAIKENPDNDEAVETAVRLARELKKVAEELQERAKKTGDPELLKLALRALEVAVRAVELAIKSNPDNEEAVETAKRLAEELRKVAELLEERACETGDPELQELAKRAKEVADRARELAKKSNPNNGSHHHHHH
notes: also called unlabeled extended hinge cs074F
kon [2]: 100000 M⁻¹ s⁻¹
Kd [3]: < 2 nM

B3: hinge cs074 (designed binder)
chain: MSGDEEVQEAVERAEELREEAEELIKKARKTGDPELLRKALEALKEAVRAVKEAIKRNPDNEEAVKTAVRLARELLKVAEELKERAEKTGDPRLLLLAAEAIAWAIEAVFLAAKASENTEGALEAARAAVKLAEVAKRIAKLLQRDAKKEGDPELLKLALRALELAVRAVELAIKENPDNEEAVETAKRLAEELRKVAELLEERAKETGDPELQELAKRAKEVADRARELAKKSNPNNGSGSHHWGSTHHHHHH
notes: De novo designed two-state hinge; the entry includes the C-terminal SNAC/His tag
binding result (effector protein 3hb12): binds
binding result (effector protein 3hb11): binds
binding result (effector protein 3hb04): binds
binding result (effector protein 3hb03): binds
binding result (effector protein 3hb08): binds
kon [2]: 64000 M⁻¹ s⁻¹
Kd [4]: 0.5 nM

B5: hinge cs230 (designed binder)
chain: MSGTKEEKERIERIEKEVRSPDPENILEAVRKALELFRENPSEEAKELLKRAIEAALRSEDERAILEALRAALEAYRQGAGDREGLLEAIRVAIRRAAESEDERAILEAVRAARILLEAERTEEAKELLRVAIERAKKSPDPEAQREAKRAEEELRKEDGSGSHHWGSTHHHHHH
binding result (effector protein 3hb24): binds
Kd [7]: 2800 nM

The remaining lines, values ahead:

kon [5]: 78000 M⁻¹ s⁻¹
Kd [6]: 5.7 nM
B4: hinge js007 (designed binder)
chain: MSGSEEVNERVKQLAEKAKEATDKEEVIEIVKELAELAKQSTDPNLVAEVVRALTEVAKTSTDTELIQEIVKVLLELARRLTDPQLLLEVLKSIAELLKELAEKTGNETAKLAALVAQIAAEVVEMALRAEKTHPGSEIVKLAVELVQKVAEIVLIAAQLMLDKPNSDEVRKVLKEVEKVAREALKALREAKRHPDSQKARDEIKEASQKAEEVKERIERAQEGSGSHHWGSTHHHHHH

binding result (effector protein 3hb32): binds
kon [8]: 2500 M⁻¹ s⁻¹
Kd [9]: 83 nM
B6: hinge cs269 (designed binder)
chain: MSGDEERVRELAERASREAERAVRSGSEESLEEALRNVEELIRKSDSEEARVRVAEAAVRAAAEAAARSGTVEAAAVAVIFTARVLQIVSSSEEAVVRVLAAAAAAAARVAVELGTEEALETALRFVELLVRLADSDEARQRVLRSASESARRSAEESGSERAREVAERFRERIERNQGSGSHHWGSTHHHHHH

Source: patent US20250236644A1 (University of Washington, published 2025)
